B1: C1QTNF4 (aa 17–329, full-length) (ligand)
chain: not shown
B2: GFP-C1QTNF4 (aa 17–329) (ligand)
chain: not shown

How the values were obtained:
[1] = molecular target: T1, Nucleolin construct R1234G (aa 285–710) (human, UniProt P19338 285-710); test: co-IP
[2] = molecular target: T1, Nucleolin construct R1234G (aa 285–710); test: flow cytometry on cells

T1 sequence (P19338 285-710, stated change not applied): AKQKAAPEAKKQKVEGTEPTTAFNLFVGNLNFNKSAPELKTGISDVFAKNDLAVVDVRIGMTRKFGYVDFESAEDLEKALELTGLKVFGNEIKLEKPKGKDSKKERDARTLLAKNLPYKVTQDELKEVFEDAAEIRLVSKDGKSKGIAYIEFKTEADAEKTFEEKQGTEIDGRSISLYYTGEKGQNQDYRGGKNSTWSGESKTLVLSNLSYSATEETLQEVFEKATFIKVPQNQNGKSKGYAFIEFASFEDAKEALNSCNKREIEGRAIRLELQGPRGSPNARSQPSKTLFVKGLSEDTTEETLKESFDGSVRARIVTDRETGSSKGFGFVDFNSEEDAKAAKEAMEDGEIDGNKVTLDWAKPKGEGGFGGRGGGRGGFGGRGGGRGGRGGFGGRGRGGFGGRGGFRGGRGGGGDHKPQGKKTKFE

Binder	binding result [1]	binding result [2]
B1	binds	
B2		binds

From paper PMC8042453 (The Journal of Biological Chemistry, 2021)
